Measurements published in publication PMC8323339 (Immunity, 2021).
Read-outs that look alike come from different tables or passages of the source.

How the values were obtained:
[1] = target: T1, SARS-CoV-2 Spike receptor-binding domain (RBD), wild type, as used for BLI (SARS-CoV-2, wild type, UniProt P0DTC2); assay: BLI
[2] = target: SARS-CoV-2 RBD, as used for crystallization (SARS-CoV-2, wild type, UniProt P0DTC2); assay: crystal structure
[3] = target: T1, SARS-CoV-2 Spike receptor-binding …

B1: C099 IgG (antibody, V domains shown)
VH: EVQLVESGGGLIQPGGSLRLSCAASGITVSSNYMSWVRQAPGKGLEWVSVMYAGGSTFYADSVKGRFTISRDDSKNTLFLQMNSLRAEDTAIYYCARDLYSSGGTDIWGQGTMVTVSS
VL: EIVLTQSPGTLSLSPGERATLSCRASQSIGSSYLAWYQQKPGLAPRLLIYGASRRATGIPDKFSGSGSGADFTLTISRLEPEDFAVYYCQQYGSSPGTFGQGTKVEIK
[1]
  binding result: binds

B2: C099 Fab (Fab, V domains shown)
VH: EVQLVESGGGLIQPGGSLRLSCAASGITVSSNYMSWVRQAPGKGLEWVSVMYAGGSTFYADSVKGRFTISRDDSKNTLFLQMNSLRAEDTAIYYCARDLYSSGGTDIWGQGTMVTVSS
VL: EIVLTQSPGTLSLSPGERATLSCRASQSIGSSYLAWYQQKPGLAPRLLIYGASRRATGIPDKFSGSGSGADFTLTISRLEPEDFAVYYCQQYGSSPGTFGQGTKVEIK
[2]
  binding result: binds

B3: C548 IgG (antibody, V domains shown)
VH: QVQLVQSGAEVKKPGSSVKVSCKASGGTFSSYAISWVRQAPGQGLEWMGGIIPIFGTANYAQKFQGRVTITADESTSTAYMELSSLRSEDTAVYYCARREAYGPRDYYYYYGMDVWGQGTTVTVSS
VL: QSALTQPPSASASLGASVTLTCTLSSGYSNYKVDWYQQRPGKGPRFVMRVGTGGIVGSKGDGIPDRFSVLGSGLNRYLTIKNIQEEDESDYHCGADQGSGSNFVGVFGGGTKLTV
[1]
  binding result: binds

B4: C080 IgG (antibody, V domains shown)
VH: EVQLVQSGAEVKKPGESLNISCKASGYSFTIYWIAWVRQLPGKGLEWMGIIYPGDSDTRYSPSFQGQVTISADKSISTAYLQWRSLKASDSAVYYCARGVAVDWYFDLWGRGTLVTVSS
VL: QSVLTQPPSVSGAPGQRVTISCAGSSSNIGAGFDVYWYQQLPGTAPKLLIYGNNNRPSGVPDRFSGSKSGTSASLAITGLQAEDEADYYCQSSGSVLSDLYVFGTGTKVTVL
[1]
  binding result: binds

B5: C549 (antibody, V domains shown)
VH: QVQLVQSGAEVKKPGSSVKVSCKASGGTFSTSAISWVRQAPGQGLEWMGGIIPFFGTPNYAQKFQGRVTIIADESTTTAYMELSGLRFEDSAVYYCARREPYGPRDYYYFFGMDVWGPGTTVTVSS
VL: QSALTQPPFASASLGASVTLTCTLSSDYSYYKVDWYQQRPGKGPRFVIRVGPGGIVGSKGDGFPDRFSVLGSGLNRSLTINNIQEEDEGDYHCGADEGSGGTFVGVFGGGTKLTV
[3]
  binding result: binds
